Substitutions are numbered along the chain they refer to. Names may count otherwise.

First the molecules themselves.
B1: anti-cTnT Fab mutant 22 (F60W, Y104F) (Fab, V domains shown)
VH: EVQLQQSGPELVKPGASVKMSCKASGYTFTDYYMKWVKQSHGKSLEWIGDINPNNGETWYNQKFKDKATLTVDKSSSTAYMQLNSLTSEDSAVYYCATRVFDFWGQGTTLTVSS
VL: DIVLTQSPASLAVSLGQRATISCKASQSVDYDGTSYMNWFQQKAGQPPKRLIYAASNLESGIPARFSGRGSGTDFALNIHPVEEEDAATYYCQQSNEDPYTFGGGTKLEIK
notes: also called combination 22
B2: parental anti-cTnT Fab fragment (wildtype TnT M-7 Fab, from antibody 12.1A11.11-7) (Fab, V domains shown)
VH: B1 VH with W59F, F103Y
VL: B1 VL
notes: also called wildtype Fab; TnT M-7 (wildtype) Fab
B3: anti-cTnT Fab mutant 5 (Y34F, F60W, V101Y + Y104F) (Fab, V domains shown)
VH: B1 VH with Y33F, V100Y
VL: B1 VL
notes: also called combination 5
B4: anti-cTnT Fab mutant 20 (V101Y + Y104F) (Fab, V domains shown)
VH: B1 VH with W59F, V100Y
VL: B1 VL
notes: also called combination 20
B5: anti-cTnT Fab mutant 19 (Y104F) (Fab, V domains shown)
VH: B1 VH with W59F
VL: B1 VL
notes: also called combination 19
B6: anti-cTnT Fab mutant 15 (Y34I, Y104F) (Fab, V domains shown)
VH: B1 VH with Y33I, W59F
VL: B1 VL
notes: also called combination 15
B7: anti-cTnT Fab mutant 8 (Y34F, V101Y + Y104F) (Fab, V domains shown)
VH: B1 VH with Y33F, W59F, V100Y
VL: B1 VL
notes: also called combination 8
B8: anti-cTnT Fab mutant 23 (F60W, V101Y + Y104F) (Fab, V domains shown)
VH: B1 VH with V100Y
VL: B1 VL
notes: it was tied to mutant 23 by the printed mutations; also called combination 23
B9: anti-cTnT Fab mutant 13 (Y34I, F60W, V101Y + Y104F) (Fab, V domains shown)
VH: B1 VH with Y33I, V100Y
VL: B1 VL
notes: also called combination 13
B10: anti-cTnT Fab mutant 21 (F60W, V101Y) (Fab, V domains shown)
VH: B1 VH with V100Y, F103Y
VL: B1 VL
notes: also called combination 21
B11: anti-cTnT Fab mutant 16 (Y34I, V101Y + Y104F) (Fab, V domains shown)
VH: B1 VH with Y33I, W59F, V100Y
VL: B1 VL
notes: also called combination 16
B12: anti-cTnT Fab mutant 3 (Y34F, F60W, V101Y) (Fab, V domains shown)
VH: B1 VH with Y33F, V100Y, F103Y
VL: B1 VL
notes: also called combination 3
B13: anti-cTnT Fab mutant 7 (Y34F, Y104F) (Fab, V domains shown)
VH: B1 VH with Y33F, W59F
VL: B1 VL
notes: also called combination 7
B14: anti-cTnT Fab mutant 4 (Y34F, F60W, Y104F) (Fab, V domains shown)
VH: B1 VH with Y33F
VL: B1 VL
notes: also called combination 4
B15: anti-cTnT Fab mutant 9 (Y34I) (Fab, V domains shown)
VH: B1 VH with Y33I, W59F, F103Y
VL: B1 VL
notes: also called combination 9
B16: anti-cTnT Fab mutant 11 (Y34I, F60W, V101Y) (Fab, V domains shown)
VH: B1 VH with Y33I, V100Y, F103Y
VL: B1 VL
notes: also called combination 11
B17: anti-cTnT Fab mutant 17 (F60W) (Fab, V domains shown)
VH: B1 VH with F103Y
VL: B1 VL
notes: also called combination 17
B18: anti-cTnT Fab mutant 18 (V101Y) (Fab, V domains shown)
VH: B1 VH with W59F, V100Y, F103Y
VL: B1 VL
notes: it was tied to mutant 18 by the printed mutation V101Y; also called combination 18
B19: anti-cTnT Fab mutant 1 (Y34F) (Fab, V domains shown)
VH: B1 VH with Y33F, W59F, F103Y
VL: B1 VL
notes: also called combination 1
B20: anti-cTnT Fab mutant 2 (Y34F, F60W) (Fab, V domains shown)
VH: B1 VH with Y33F, F103Y
VL: B1 VL
notes: also called combination 2
B21: anti-cTnT Fab mutant 12 (Y34I, F60W, Y104F) (Fab, V domains shown)
VH: B1 VH with Y33I
VL: B1 VL
notes: also called combination 12; combination "12"

The target of the first experiment is T1, recombinant human cardiac troponin T (human, UniProt P45379 2-298).
T1 construct: In the ECL assay the cTnT came from the Troponin T hs CalSet calibrator; also called cTnT; TnT
The experiment in a line: SPR (Biacore T200, 37 C), Fab captured, cTnT analyte; Fab fragment. The protocol:
Detailed kinetic investigations were performed at 37° C. on a GE Healthcare T200 instrument. A Biacore CM-5 series S sensor was mounted into the instrument and was preconditioned according to the manufacturer's instructions. The system buffer was HBS-ET (10 mM HEPES (pH 7.4), 150 mM NaCl, 1 mM EDTA, 0.05% (w/v) Tween® 20). The sample buffer was the system buffer supplemented with 1 mg/ml CMD (Carboxymethyldextran, Fluka). In one embodiment an anti-human antibody capture system was established on the CMS biosensor. GAHF(ab′)2, (goat anti human F(ab′)2) (Code Nr.: 109-005-097, lot #13.12.2005, Jackson Immuno Research) was immobilized according to the manufacturer's instructions using NHS/EDC chemistry. 30 μg/ml GAHF(ab′)2 in 10 mM sodium acetate buffer (pH 5.0) were preconcentrated to the flow cells 1, 2, 3 and 4 and were immobilized with 10.000 RU GAHF(ab′)2. […]
Chimeric anti-TnT antibody fragments were periplasmatically expressed in E. coli cells as described and were lyzed by methods known (for technical details see: Andersen, D. C. & Reilly, D. E. (2004); Production technologies for monoclonal antibodies and their fragments. Curr Opin Biotechnol 15, 456-62). […] The Fab fragment capture level (CL) in response units (RU) was monitored. […] The analyte concentration series were 80 μl/min for 3 min association phase and the dissociation phase was monitored for 3 min. […]
On the technique in general: Surface plasmon resonance follows binding to a sensor surface in real time, without labels.
As usually defined, the Kd is a measure of binding affinity in units of concentration. Consider B1, for which the Kd stood at 0.38 nM.

Another experiment deals with T1, recombinant human cardiac troponin T. The experiment in a line: SPR (Biacore T200, 37 C), Fab captured, cTnT analyte. The protocol: Detailed kinetic investigations were performed at 37° C. on a GE Healthcare T200 instrument. A Biacore CM-5 series S sensor was mounted into the instrument and was preconditioned according to the manufacturer's instructions. The system buffer was HBS-ET (10 mM HEPES (pH 7.4), 150 mM NaCl, 1 mM EDTA, 0.05% (w/v) Tween® 20). The sample buffer was the system buffer supplemented with 1 mg/ml CMD (Carboxymethyldextran, Fluka). In one embodiment an anti-human antibody capture system was established on the CMS biosensor. GAHF(ab′)2, (goat anti human F(ab′)2) (Code Nr.: 109-005-097, lot #13.12.2005, Jackson Immuno Research) was immobilized according to the manufacturer's instructions using NHS/EDC chemistry. 30 μg/ml GAHF(ab′)2 in 10 mM sodium acetate buffer (pH 5.0) were preconcentrated to the flow cells 1, 2, 3 and 4 and were immobilized with 10.000 RU GAHF(ab′)2. The sensor was subsequently saturated with 1 M ethanolamine pH 8.5.
Chimeric anti-TnT antibody fragments were periplasmatically expressed in E. coli cells as described and were lyzed by methods known (for technical details see: Andersen, D. C. & Reilly, D. E. (2004); Production technologies for monoclonal antibodies and their fragments. Curr Opin Biotechnol 15, 456-62). The lysates were diluted 1:20 in sample buffer. Fab fragments were captured via their humanized framework regions from the expression lysates on the biosensor at a flow rate of 10 μl/min for 1 min followed by a 2 min washing step with 10-fold concentrated HBS-EP buffer at 30 μl/min. The Fab fragment capture level (CL) in response units (RU) was monitored. Recombinant human TnT (Roche, 37 kDa) was diluted in sample buffer at 90 nM and a concentration series was produced with […], 30 nM, 11 nM, 3.3 nM, 1.1 nM, 0 nM, 3.3 nM TnT concentration. The analyte concentration series were 80 μl/min for 3 min association phase and the dissociation phase was monitored for 3 min.
The kinetic parameters ka [1/Ms], kd [1/s], t1/2 diss [min], KD [M] and the binding stoichiometry (Molar Ratio) (for details see: Schraeml, M. & Biehl, M. (2012); Kinetic screening in the antibody development process. Methods Mol Biol 901, 171-81.) of the cTnT analyte were determined for each Fab fragment mutant with the Biaevaluation Software (GE healthcare) according to the manufacturer's instructions.
For orientation: koff means the rate constant with which the complex falls apart. What is called kon is the second-order rate constant of association. With B2, the Kd was found to be 0.58 nM, the “MR (Molar Ratio)” value turned out to be 0.6, the koff was determined as 0.0014 s⁻¹ and the kon came to 2.5e+06 M⁻¹ s⁻¹. Also, the t/2-diss came to 8 min.
As for B3, the Kd stood at 0.23 nM, the “MR (Molar Ratio)” value amounted to 0.7, the dissociation rate constant (koff) amounted to 0.00057 s⁻¹ and the kon was found to be 2.4e+06 M⁻¹ s⁻¹. In addition, the t/2-diss turned out to be 20 min.
For B4 the same measures were 1.1 nM, 0.6, 0.0034 s⁻¹, 3.1e+06 M⁻¹ s⁻¹ and 3 min.
Regarding B5, the Kd amounted to 0.46 nM, the “MR (Molar Ratio)” value stood at 0.8, the koff was 0.0014 s⁻¹ and the kon is 2.9e+06 M⁻¹ s⁻¹. Moreover, the t/2-diss is 8 min.
For B6 the same measures were 1.1 nM, 0.7, 0.0023 s⁻¹, 2.2e+06 M⁻¹ s⁻¹ and 5 min.
Regarding B1, the “MR (Molar Ratio)” value turned out to be 0.7, the koff turned out to be 0.0011 s⁻¹, the kon stood at 3e+06 M⁻¹ s⁻¹ and the t/2-diss was 10 min.
In the case of B7, the Kd turned out to be 0.2 nM, the “MR (Molar Ratio)” value was determined as 0.7, the koff amounted to 0.00052 s⁻¹ and the kon turned out to be 2.7e+06 M⁻¹ s⁻¹. Besides, the t/2-diss is 22 min.
For B8 the same measures were 1.2 nM, 0.6, 0.0034 s⁻¹, 2.8e+06 M⁻¹ s⁻¹ and 3 min.
Taken in the same sequence, the figures for B9 were 0.62 nM, 0.7, 0.0019 s⁻¹, 3e+06 M⁻¹ s⁻¹ and 6 min.
As for B10, the Kd was determined as 1.6 nM, the “MR (Molar Ratio)” value worked out at 0.5, the koff came to 0.0043 s⁻¹ and the kon was 2.7e+06 M⁻¹ s⁻¹.
As to B11, the Kd was 3.4 nM, the “MR (Molar Ratio)” value was determined as 0.6, the koff was 0.0059 s⁻¹ and the kon stood at 1.7e+06 M⁻¹ s⁻¹. Further, the t/2-diss was 2 min.
Take B12: the Kd is 0.37 nM, the “MR (Molar Ratio)” value was 0.7, the koff turned out to be 0.00079 s⁻¹ and the kon stood at 2.1e+06 M⁻¹ s⁻¹. Further, the t/2-diss worked out at 15 min.
Taken in the same sequence, the figures for B13 were 0.45 nM, 0.7, 0.0011 s⁻¹, 2.4e+06 M⁻¹ s⁻¹ and 11 min.
For B14 the same measures were 0.27 nM, 0.7, 0.00072 s⁻¹, 2.7e+06 M⁻¹ s⁻¹ and 16 min.
For B15 the same measures were 1.2 nM, 0.7, 0.0023 s⁻¹, 2e+06 M⁻¹ s⁻¹ and 5 min.
Turning to B16, the Kd turned out to be 1 nM, the “MR (Molar Ratio)” value was determined as 0.7, the koff amounted to 0.0022 s⁻¹ and the kon came to 2.2e+06 M⁻¹ s⁻¹. For the same molecule, the t/2-diss was 5 min.
With B17, the Kd was found to be 0.54 nM, the “MR (Molar Ratio)” value is 0.7, the koff turned out to be 0.0016 s⁻¹ and the kon was 2.9e+06 M⁻¹ s⁻¹. Moreover, the t/2-diss was 7 min.
On to B18, for which the Kd stood at 1.6 nM, the “MR (Molar Ratio)” value was found to be 0.5, the koff amounted to 0.0047 s⁻¹ and the kon worked out at 2.9e+06 M⁻¹ s⁻¹. Further, the t/2-diss stood at 2 min.
Regarding B19, the Kd came to 0.62 nM, the “MR (Molar Ratio)” value was found to be 0.7, the koff came to 0.0014 s⁻¹ and the kon amounted to 2.3e+06 M⁻¹ s⁻¹. The t/2-diss was found to be 8 min.
For B20 the same measures were 0.46 nM, 0.7, 0.001 s⁻¹, 2.2e+06 M⁻¹ s⁻¹ and 11 min.
For B21 the same measures were 0.32 nM, 0.5, 0.00037 s⁻¹, 1.18e+06 M⁻¹ s⁻¹ and 31 min.

The values above are taken from patent publication US20210009668A1 (ROCHE DIAGNOSTICS OPERATIONS, published 2021).
